Test results: patent US20190062438A1 (CSL, published 2019)

What was measured:
[1] = target: T1, soluble Homo sapiens CD131 comprising a C-terminal 6xHis tag (human, UniProt P32927 17-438); experiment: SPR, kinetics, Fab over captured shCD131
T1 construct: truncated after Ser438, C-terminal 6xHis; also called shCD131; shβc
T1 sequence: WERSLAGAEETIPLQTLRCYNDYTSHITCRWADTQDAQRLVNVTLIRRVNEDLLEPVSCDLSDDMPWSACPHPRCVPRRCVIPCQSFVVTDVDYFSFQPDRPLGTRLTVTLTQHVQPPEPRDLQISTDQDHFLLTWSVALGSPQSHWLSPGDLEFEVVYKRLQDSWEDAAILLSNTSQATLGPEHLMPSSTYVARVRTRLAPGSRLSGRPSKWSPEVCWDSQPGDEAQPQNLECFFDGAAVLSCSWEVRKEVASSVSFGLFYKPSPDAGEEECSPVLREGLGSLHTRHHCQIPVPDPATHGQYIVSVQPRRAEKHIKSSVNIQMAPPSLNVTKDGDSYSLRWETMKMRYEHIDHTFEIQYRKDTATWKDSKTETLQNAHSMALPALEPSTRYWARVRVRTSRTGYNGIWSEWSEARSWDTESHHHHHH

shCD131 V105A = target: T2, shCD131 V105A (human, UniProt P32927 17-438); experiment: SPR, kinetics, Fab over captured mutant
T2 construct: C-terminal 6xHis
T2 sequence: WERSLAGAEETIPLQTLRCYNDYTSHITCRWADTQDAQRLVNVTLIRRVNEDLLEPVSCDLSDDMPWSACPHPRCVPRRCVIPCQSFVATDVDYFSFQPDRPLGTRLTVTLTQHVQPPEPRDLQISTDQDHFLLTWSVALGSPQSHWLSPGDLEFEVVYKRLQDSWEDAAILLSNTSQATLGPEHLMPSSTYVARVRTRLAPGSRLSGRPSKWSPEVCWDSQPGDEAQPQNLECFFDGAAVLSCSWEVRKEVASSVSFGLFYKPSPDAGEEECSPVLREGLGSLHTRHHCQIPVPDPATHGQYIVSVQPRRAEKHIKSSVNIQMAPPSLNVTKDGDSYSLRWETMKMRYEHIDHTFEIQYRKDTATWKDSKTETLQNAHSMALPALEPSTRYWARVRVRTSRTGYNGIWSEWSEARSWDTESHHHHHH
Protocol: (§1) As shβc is a dimer, kinetics assays were performed with shβc captured on the sensor surface, and purified Fab injected as the analyte. Avidity effects were avoided by the use of Fab rather than whole IgG.
(§2) shCD131 was captured on spots 1 and 5 of each flow cell for 2 minutes at a concentration of 0.4 μg/ml. […] For some analysis purified Fab was injected over each flow cell for 3 minutes and dissociation was monitored for a further 10 minutes. Regeneration of the surface was performed after each cycle with a 40 second injection of 25 mM glycine, pH 2.0. The analysis was performed with Fabs at several concentrations between 100 and 0.31 nM, with each concentration analyzed twice and in random order. The analysis was performed at a flow rate of 30 μl/min in HBS-EP buffer (10 mM Hepes, 150 mM NaCl, 3 mM EDTA, 0.005% Tween 20, pH 7.4) at 37° C. Responses from spots 2 and 4 of each flow cell, (in which shβc was not captured, but otherwise treated identically), were subtracted from those of spots 1 and 5 respectively to produce reference subtracted data. Reference subtracted responses from a blank injection comprising buffer alone were subtracted from the resultant sensorgrams to produce double referenced data suitable for kinetic analysis. Double-referenced sensorgrams were fitted using non-linear regression to a model describing 1:1 kinetics, including a term for mass transport limitation. The Rₘₐₓ value was fitted locally to account for slight deviations in the level of sCD131 captured, with association rate (kₐ), dissociation rate (kd) and equilibrium dissociation constant (KD) fitted globally.
(§3) Mapping of the shCD131 epitope was performed by measurement of the affinity of Fabs for various alanine point mutants of shCD131 essentially as described above, with the following exceptions. Each shCD131 mutant was captured for 120 seconds at concentrations between 1 and 5 μg/ml. For kinetic analysis, purified recombinant Fabs were injected for 2 minutes, and dissociation was monitored for a further 2 minutes. […] Fab concentrations ranged from 16 μM to 3.9 nM in two-fold dilutions.

shCD131 D369A = target: T3, shCD131 D369A (human, UniProt P32927 17-438); experiment: SPR, kinetics, Fab over captured mutant
T3 construct: C-terminal 6xHis
T3 sequence: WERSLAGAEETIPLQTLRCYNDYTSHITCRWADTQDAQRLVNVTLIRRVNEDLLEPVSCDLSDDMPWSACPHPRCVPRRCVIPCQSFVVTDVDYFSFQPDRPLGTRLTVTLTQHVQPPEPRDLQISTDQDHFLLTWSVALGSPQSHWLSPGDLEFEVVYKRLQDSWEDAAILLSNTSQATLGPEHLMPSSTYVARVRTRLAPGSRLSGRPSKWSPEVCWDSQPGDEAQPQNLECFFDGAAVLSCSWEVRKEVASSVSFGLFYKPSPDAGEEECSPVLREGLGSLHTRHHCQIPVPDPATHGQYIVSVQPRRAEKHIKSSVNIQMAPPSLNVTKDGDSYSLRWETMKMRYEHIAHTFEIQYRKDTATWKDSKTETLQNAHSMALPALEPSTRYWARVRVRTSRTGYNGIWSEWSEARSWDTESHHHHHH
Protocol: as §1, §2, §3

shCD131 N337A = target: T4, shCD131 N337A (human, UniProt P32927 17-438); experiment: SPR, kinetics, Fab over captured mutant
T4 construct: C-terminal 6xHis
T4 sequence: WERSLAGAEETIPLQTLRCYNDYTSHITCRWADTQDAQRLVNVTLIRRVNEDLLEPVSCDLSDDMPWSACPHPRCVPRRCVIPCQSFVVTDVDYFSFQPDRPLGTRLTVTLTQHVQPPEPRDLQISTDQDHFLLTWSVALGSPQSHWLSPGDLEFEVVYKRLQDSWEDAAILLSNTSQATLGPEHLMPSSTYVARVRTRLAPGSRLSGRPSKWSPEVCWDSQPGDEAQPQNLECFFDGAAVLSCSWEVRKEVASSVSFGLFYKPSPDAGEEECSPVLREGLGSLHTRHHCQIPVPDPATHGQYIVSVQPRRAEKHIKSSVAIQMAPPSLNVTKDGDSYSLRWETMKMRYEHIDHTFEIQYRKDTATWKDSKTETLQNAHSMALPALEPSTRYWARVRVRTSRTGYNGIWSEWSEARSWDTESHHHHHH
Protocol: as §1, §2, §3

B1: 9A2 Fab (Fab, V domains shown)
VH: EVQLLESGGGLVQPGGSLRLSCAASGFTFSHYHMLWVRQAPGKGLEWVSSIRSSGGFTYYADSVKGRFTISRDNSKNTLYLQMNSLRAEDTAVYYCARFYDSFFDIWGQGTMVTVSS
VL: DIQMTQSPSSVSASVGDRVTITCRASQGISSWLAWYQQKPGKAPKLLIYAASSLQSGVPSRFSGSGSGTDFTLTISSLQPEDFATYYCQQANSFPITFGQGTRLEIKR
notes: also called recombinant Fab of 9A2
[1]
  Kd: 49 nM
shCD131 V105A
  Kd: 78 nM
shCD131 D369A
  Kd: 28 nM
shCD131 N337A
  Kd: 91 nM
